Data published in patent US20210024654A1 (AMPHIVENA THERAPEUTICS, published 2021).
Residue numbers refer to the chain shown, from its start. Blank lines part the entries; values can stand above or below the binder they belong to.

Molecular target: cynomolgus CD33 (cynomolgus)
Test: flow cytometry KDs on CHO cells, cyno CD33 / human CD33

KD ratio CynoCD33/huCD33: 0.6
B1: CD33/CD3 tandem diabody 08 (bispecific antibody)
chain: QSVLTQPPSASGTPGQRVTISCSGSRSNIGSNTVNWYQQLPGTAPKLLIYGNNQRPSGVPDRFSGSKSGSSASLAISGLQSEDEADYYCATWDDSLIGWVFGGGTKLTVLGGSGGSEVQLVESGGGLVQPGGSLRLSCAASGFTFSTYAMNWVRQAPGKGLEWVGRIRSKYNNYATYYADSVKDRFTISRDDSKNSLYLQMNSLKTEDTAVYYCARHGNFGNSYVSYFAYWGQGTLVTVSSGGSGGSDIQMTQSPSSLSASVGDRVTITCRSSTGAVTTSNYANWVQQKPGKAPKALIGGTNKRAPGVPSRFSGSLIGDKATLTISSLQPEDFATYYCALWYSNLWVFGQGTKVEIKGGSGGSQVQLVQSGAEVKKPGASVKVSCKASGYTFTSYDINWVRQAPGQGLEWMGWMNPNSGNTGFAQKFQGRVTMTRDTSTSTVYMELSSLRSEDTAVYYCARDRANTDFSYGMDVWGQGTLVTVSSAAAGSHHHHHH

KD ratio CynoCD33/huCD33: 45.8
B2: CD33/CD3 tandem diabody 07 (bispecific antibody)
chain: DIQMTQSPSSLSASVGDRVTITCRSSTGAVTTSNYANWVQQKPGKAPKALIGGTNKRAPGVPSRFSGSLIGDKATLTISSLQPEDFATYYCALWYSNLWVFGQGTKVEIKGGSGGSQVQLQESGGGVVQPGRSLRLSCAASGFSFSNYGIHWVRQAPGKGLEWVALISYDGNKKFYADSVKGRFAISRDTSKNTVDLQMTSLRPEDTAVYYCAKDRLESAAFDYWGQGTLVTVSSGGSGGSSYELTQPPSVSVAPGQTAMITCGGNNIGSTTVHWYQQKPGQAPVLVVYDDNERPSGIPERFSGSNSGSTATLTINRVEAGDEADYYCQVWDSGSDHVVFGGGTKLTVLGGSGGSEVQLVESGGGLVQPGGSLRLSCAASGFTFSTYAMNWVRQAPGKGLEWVGRIRSKYNNYATYYADSVKDRFTISRDDSKNSLYLQMNSLKTEDTAVYYCARHGNFGNSYVSYFAYWGQGTLVTVSSAAAGSHHHHHH

KD ratio CynoCD33/huCD33: 1.8
B3: CD33/CD3 tandem diabody 24 (bispecific antibody)
chain: DIQMTQSPSSLSASVGDRVTITCRSSTGAVTTSNYANWVQQKPGKAPKALIGGTNKRAPGVPSRFSGSLIGDKATLTISSLQPEDFATYYCALWYSNLWVFGQGTKVEIKGGSGGSQVQLVQSGAEVKKPGSSVKVSCKASGGTFDSYAISWVRQAPGQGLEWMGGIIPIFGSAHYSQKFQGRVTITADESTSTAYMELSSLRSEDTAVYYCAREYYYDSSEWAFDIWGQGTLVTVSSGGSGQSVLTQPPSASGTPGQRVTISCSGSSSNIGDNVVNWYQQLPGTAPKLLIYSTNKRPSGVPDRFSGSKSGSSASLAISGLQSEDEADYYCAAWDDSLSAYVFGGGTKLTVLGGSGGSEVQLVESGGGLVQPGGSLRLSCAASGFTFSTYAMNWVRQAPGKGLEWVGRIRSKYNNYATYYADSVKDRFTISRDDSKNSLYLQMNSLKTEDTAVYYCARHGNFGNSYVSYFAYWGQGTLVTVSSAAAGSHHHHHH

KD ratio CynoCD33/huCD33: 0.6
B4: CD33/CD3 tandem diabody 22 (bispecific antibody)
chain: DIQMTQSPSSLSASVGDRVTITCRSSTGAVTTSNYANWVQQKPGKAPKALIGGTNKRAPGVPSRFSGSLIGDKATLTISSLQPEDFATYYCALWYSNLWVFGQGTKVEIKGGSGGSQVQLVQSGAEVKKPGSSVKVSCKASGGTFSSYGISWVRQAPGQGLEWMGGIIPIFGSAHYAQKFQGRVTITADESTSTAYMELSSLRSEDTAVYYCAREYYYDSSEWAFDIWGQGTLVTVSSGGSGQSVLTQPPSASGTPGQRVTISCSGSSSNIGSNTVKWYQQLPGTAPKLLIYSNNQRSSGVPDRFSGSKSGSSASLAISGLQSEDEADYYCAAWDDSLNGYVFGGGTKLTVLGGSGGSEVQLVESGGGLVQPGGSLRLSCAASGFTFSTYAMNWVRQAPGKGLEWVGRIRSKYNNYATYYADSVKDRFTISRDDSKNSLYLQMNSLKTEDTAVYYCARHGNFGNSYVSYFAYWGQGTLVTVSSAAAGSHHHHHH

KD ratio CynoCD33/huCD33: 0.8
B5: CD33/CD3 tandem diabody 05 (bispecific antibody)
chain: DIQMTQSPSSLSASVGDRVTITCRSSTGAVTTSNYANWVQQKPGKAPKGLIGGTNKRAPGVPARFSGSGSGTDFTLTISSLQPEDFATYYCALWYSNLWVFGQGTKVEIKGGSGGSQVQLVQSGAEVKKPGASVKVSCKASGYTFTSYDINWVRQAPGQGLEWMGWMNPNSGNTGFAQKFQGRVTMTRDTSTSTVYMELSSLRSEDTAVYYCARDRANTDYSFGMDVWGQGTLVTVSSGGSGGQSVLTQPPSASGTPGQRVTISCSGSRSNIGSNTVNWYQQLPGTAPKLLIYGNNQRPSGVPDRFSGSKSGTSASLAISGLQSEDEADYYCATWDDSLIGWVFGGGTKLTVLGGSGGSEVQLVESGGGLVQPGGSLRLSCAASGFTFSTYAMNWVRQAPGKGLEWVGRIRSKYNNYATYYADSVKDRFTISRDDSKNSLYLQMNSLKTEDTAVYYCARHGNFGNSYVSWFAYWGQGTLVTVSSAAAGSHHHHHH

KD ratio CynoCD33/huCD33: 0.8
B6: CD33/CD3 tandem diabody 06 (bispecific antibody)
chain: B5 chain with F223L

KD ratio CynoCD33/huCD33: 1.6
B7: CD33/CD3 tandem diabody 13 (bispecific antibody)
chain: DIQMTQSPSSLSASVGDRVTITCRSSTGAVTTSNYANWVQQKPGKAPKGLIGGTNKRAPGVPSRFSGSLIGTDFTLTISSLQPEDFATYYCALWYSNLWVFGQGTKVEIKGGSGGSQVQLVQSGAEVKKPGASVKVSCKASGYTFTSYDINWVRQAPGQGLEWMGWMNPNSGNTGFAQKFQGRVTMTRDTSTSTVYMELSSLRSEDTAVYYCARDRAVTDYYYGMDVWGQGTLVTVSSGGSGQSVLTQPPSASGTPGQRVTISCSGSRSNIGSNTVNWYQQLPGTAPKLLIYGNNQRPSGVPDRFSGSKSGTSASLAISGLQSEDEADYYCATWDDSLIGWVFGGGTKLTVLGGSGGSEVQLVESGGGLVQPGGSLRLSCAASGFTFSTYAMNWVRQAPGKGLEWVGRIRSKYNNYATYYADSVKDRFTISRDDSKNSLYLQMNSLKTEDTAVYYCARHGNFGNSYVSWFAYWGQGTLVTVSS

KD ratio CynoCD33/huCD33: 1.1
B8: CD33/CD3 tandem diabody 02 (bispecific antibody)
chain: DIQMTQSPSSLSASVGDRVTITCRSSTGAVTTSNYANWVQQKPGKAPKGLIGGTNKRAPGVPARFSGSGSGTDFTLTISSLQPEDFATYYCALWYSNLWVFGQGTKVEIKGGSGGSQVQLVQSGAEVKKPGASVKVSCKASGYTFTSYDINWVRQAPGQGLEWMGWMNPNSGNTGFAQKFQGRVTMTRDTSTSTVYMELSSLRSEDTAVYYCARDRAVTDYYYGMDVWGQGTLVTVSSGGSGQSVLTQPPSASGTPGQRVTISCSGSRSNIGSNTVNWYQQLPGTAPKLLIYGNNQRPSGVPDRFSGSKSGTSASLAISGLQSEDEADYYCATWDDSLIGWVFGGGTKLTVLGGSGGSEVQLVESGGGLVQPGGSLRLSCAASGFTFSTYAMNWVRQAPGKGLEWVGRIRSKYNNYATYYADSVKDRFTISRDDSKNSLYLQMNSLKTEDTAVYYCARHGNFGNSYVSWFAYWGQGTLVTVSSAAAGSHHHHHH

KD ratio CynoCD33/huCD33: 1.7
B9: CD33/CD3 tandem diabody 12 (bispecific antibody)
chain: B8 chain with G49A, A63S, G69L, S70I, T72D, D73K, F74A, W469Y

KD ratio CynoCD33/huCD33: 0.8
B10: CD33/CD3 tandem diabody 10 (bispecific antibody)
chain: B8 chain with A63S, G69L, S70I, T72D, D73K, F74A, V218N, Y222S, Y223F

KD ratio CynoCD33/huCD33: 1.2
B11: CD33/CD3 tandem diabody 11 (bispecific antibody)
chain: B8 chain with A63S, G69L, S70I, T72D, D73K, F74A, V218N, Y222S, Y223L

KD ratio CynoCD33/huCD33: 0.7
B12: CD33/CD3 tandem diabody 01 (bispecific antibody)
chain: B8 chain with V218N, Y221F, Y222S, T312S

KD ratio CynoCD33/huCD33: 0.6
B13: CD33/CD3 tandem diabody 03 (bispecific antibody)
chain: B8 chain with V218N, Y222S, Y223F

KD ratio CynoCD33/huCD33: 1.1
B14: CD33/CD3 tandem diabody 04 (bispecific antibody)
chain: B8 chain with V218N, Y222S, Y223L

KD ratio CynoCD33/huCD33: 1
B15: CD33/CD3 tandem diabody 09 (bispecific antibody)
chain: B8 chain with A63S, G69L, S70I, T72D, D73K, F74A, V218N, Y221F, Y222S, T312S

KD ratio CynoCD33/huCD33: 1.9
B16: CD33/CD3 tandem diabody 23 (bispecific antibody)
chain: DIQMTQSPSSLSASVGDRVTITCRSSTGAVTTSNYANWVQQKPGKAPKGLIGGTNKRAPGVPSRFSGSLIGTDFTLTISSLQPEDFATYYCALWYSNLWVFGQGTKVEIKGGSGGSQVQLVQSGAEVKKPGSSVKVSCKASGGTFSSYGISWVRQAPGQGLEWMGGIIPIFGSAHYAQKFQGRVTITADESTSTAYMELSSLRSEDTAVYYCAREYYYDSSEWAFDIWGQGTLVTVSSGGSGQSVLTQPPSASGTPGQRVTISCSGSSSNIGSNTVKWYQQLPGTAPKLLIYSNNQRSSGVPDRFSGSKSGSSASLAISGLQSEDEADYYCAAWDDSLNGYVFGGGTKLTVLGGSGGSEVQLVESGGGLVQPGGSLRLSCAASGFTFSTYAMNWVRQAPGKGLEWVGRIRSKYNNYATYYADSVKDRFTISRDDSKNSLYLQMNSLKTEDTAVYYCARHGNFGNSYVSWFAYWGQGTLVTVSS
